Measurements: patent US20260109761A1 (IP2IPO INNOVATIONS, published 2026)

What was measured:
[1] = molecular target: T1, huZIP12-ECD-GST (human, UniProt Q504Y0 24-202); test: SPR single cycle kinetics (Biacore): mAb captured on protein A, huZIP12-ECD-GST injected; mean±SD of the control runs
T1 construct: also called hZIP12-ECD-GST; human ZIP12-ECD-GST; not shown: glutathione S-transferase (GST) tag
Experimental: (§1) Single Cycle Kinetics (SCK) involves first capturing the mAb onto the protein A sensor surface and then sequentially injecting a series of concentrations of huZIP12-ECD-GST over the surface starting at the lowest concentration and ending with the highest concentration. The final concentration is followed by a dissociation phase where buffer only is passed across the surface followed by regeneration, where the remaining bound huZIP12-ECD-GST is removed from the surface by injection of a 10 mM Glycine pH 1.5 and 50 mM NaOH solution. The SCK is repeated for each monoclonal antibody providing duplicate data and the kinetics of each interaction is evaluated by the Biacore software.

[2] = molecular target: T1, huZIP12-ECD-GST; test: SPR single cycle kinetics, 2.34-600 nM huZIP12-ECD-GST, extended dissociation; re-test, lower concentrations, extended dissociation
Experimental: as §1
(§2) A selection of the higher affinity antibody variants were re-tested at a lower concentration series with an extended dissociation time with the objective of obtaining a better assessment of the binding kinetics. Referring now to FIG. 7, there are shown the data for the monoclonal antibodies that were re-tested to optimise the binding kinetic data. Once again, three antibody variants, H3_W99H_L1, H3_W99HL2 and H3_W99H_VL-par, all appear to have a higher affinity than the parent antibody. The on-rate (ka), off-rate (kd) and overall affinity measurement (KD) are all improved compared to the 51B12 VH_VL_par parent antibody.

[3] = molecular target: T1, huZIP12-ECD-GST; test: HTRF competition: unlabelled antibody against Tb-labelled 51B12-parent on hZIP12-ECD-GST, detected with anti-GST-XL665
Experimental: Homogeneous Time Resolved Fluorescence (HTRF) assays were used to analyse the antibodies. A checkerboard assay was performed to validate the binding of the terbium labeled-antibody with hZIP12-ECD-GST. Serial dilutions (starting at 1000 ng/ml, semi-log dilutions) of Terbium-labeled 51B12-parent were incubated with serial dilutions of hZIP12-ECD-GST (starting at 5000 ng/ml, semi-log dilutions) followed by incubation with anti-GST-XL665. After excitation (320 nm), emission signals were obtained and HTRF ratio was calculated (665 nm/615 nm, Panel A). Signal/background ratios (S/B) were calculated from the HTRF ratios (0 ng/ml hZIP12-ECD-GST as background signal) and plotted against the Tb-51B12-parent concentration. The combinations 500 ng/ml hZIP12-ECD-GST+50 ng Tb-Ab, 150 ng/ml hZIP12-ECD-GST+50 ng Tb-Ab and 50 ng/ml hZIP12-ECD-GST+50 ng Tb-Ab were chosen as range for the competition assay. For the HTRF assay, 150 ng/ml hZIP12-ECD-GST+30 ng/ml Tb-51B12 was selected.

[4] = molecular target: T1, huZIP12-ECD-GST; test: SPR single cycle kinetics (Biacore): mAb captured on protein A, huZIP12-ECD-GST injected at 2.34-600 nM, extended dissociation
Experimental: as §1, §2

T1 sequence (Q504Y0 24-202): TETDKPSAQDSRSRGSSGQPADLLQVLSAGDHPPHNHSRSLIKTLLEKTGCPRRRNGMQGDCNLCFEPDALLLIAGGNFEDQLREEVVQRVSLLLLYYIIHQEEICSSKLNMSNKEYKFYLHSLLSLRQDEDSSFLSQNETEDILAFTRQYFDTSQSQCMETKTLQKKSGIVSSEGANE

B1: 51B12 parent (antibody, V domains shown)
VH: QVQLVESGGGVVQPGRSLRLSCAASGFTFSDYGMHWVRQAPGKGLEWVAYISSGGTTIYYADTVKGRFTISRDNSKNTLYLQMNSLRAEDTAVYYCARWTNLYAMDYWGQGTTVTVSS
VL: DIVLTQSPDSLAVSLGERATINCRASKSVSTSGYSYMHWYQQKPGQPPKFLIYLASNLESGVPDRFSGSGSGTDFTLTISSLQAEDVAVYYCQHSREVPYTFGGGTKVEIKR
notes: Fc null human IgG1 / human kappa
[1]
  Kd: 0.969 nM
  koff: 2.66e-05 s⁻¹
[2]
  Kd: 1.1 nM
[3]
  IC50 (read off the curve): ~0.2 µg/mL
[4]
  Kd: 1.09 nM
  koff: 3e-05 s⁻¹
  kon: 27500 M⁻¹ s⁻¹
